In publication PMC6353875 (2019) one finds Kd data, which are given here for one molecule.

This experiment has as its target EZH2 SRM-SANT1 (residues 141–251) (human, UniProt Q15910 141-251). As to the kind of experiment: NMR.

Sequence of EZH2 SRM-SANT1 (residues 141–251) (Q15910 141-251): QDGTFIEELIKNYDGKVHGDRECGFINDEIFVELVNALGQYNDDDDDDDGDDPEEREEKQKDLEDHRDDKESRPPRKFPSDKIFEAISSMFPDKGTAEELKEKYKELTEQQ

B1: unmodified histone H2B peptide (residues 1–11) (peptide)
peptide: PEPAKSAPAPK
In the case of B1, the dissociation constant Kd is greater than 5 mM.
